Data: patent US20220265819A1

Target: full length pHrodo-labelled monomeric (P301S) 2N4R tau (human) (UniProt P10636)
Test: cell-based or functional assay

Sequence of full length pHrodo-labelled monomeric (P301S) 2N4R tau (human) (P10636 other isoform, or with tags, fused parts or gaps P301S P301S): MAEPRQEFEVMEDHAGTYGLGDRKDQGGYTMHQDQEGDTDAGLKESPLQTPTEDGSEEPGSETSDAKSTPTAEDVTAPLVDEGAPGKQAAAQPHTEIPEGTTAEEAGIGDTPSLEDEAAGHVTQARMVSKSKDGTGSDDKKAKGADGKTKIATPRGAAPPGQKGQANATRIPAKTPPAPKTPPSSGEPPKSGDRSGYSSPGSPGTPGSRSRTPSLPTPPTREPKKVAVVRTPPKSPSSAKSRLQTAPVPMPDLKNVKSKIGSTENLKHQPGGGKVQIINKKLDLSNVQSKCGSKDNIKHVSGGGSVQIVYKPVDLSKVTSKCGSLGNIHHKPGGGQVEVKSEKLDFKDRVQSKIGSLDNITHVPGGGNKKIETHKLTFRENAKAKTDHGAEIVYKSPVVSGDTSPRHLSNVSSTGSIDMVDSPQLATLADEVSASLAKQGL

Row | inhibition of uptake of monomeric tau into human iPSC-derived neurons | Substance
1 | 16.9 % inhibition | human IgG1 isotype control (antibody)
2 | 14.5 % inhibition | isotype control rabbit IgG (Abcam) (antibody)
